Test results from PMC9157081.

T1: His-E1 (Glycine max, UniProt I2FKG6 1-174)
T1 sequence: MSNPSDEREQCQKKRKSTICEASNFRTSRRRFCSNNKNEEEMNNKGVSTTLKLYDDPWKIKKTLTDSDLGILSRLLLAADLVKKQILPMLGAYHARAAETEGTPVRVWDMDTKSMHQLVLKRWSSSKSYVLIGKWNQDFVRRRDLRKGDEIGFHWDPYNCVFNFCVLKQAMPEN

B1: Probe4 (dsDNA)
DNA 1: AGTCTTTGTTCTTACATGAGAAACACATGTATTTTTTTTATAGACATTAT
DNA 2: ATAATGTCTATAAAAAAAATACATGTGTTTCTCATGTAAGAACAAAGACT
B2: GsWRKY20 Probe5 (dsDNA)
DNA 1: TTTTTAATTTGTTAACTCGTTGACTCAGTGGTAAACTCGAAAGTC
DNA 2: GACTTTCGAGTTTACCACTGAGTCAACGAGTTAACAAATTAAAAA
B3: GmMDE06 Probe1 (dsDNA)
DNA 1: TAAAGTATAAGTTTACTAATGGAGTCCATGAGTTAAATTTATAAAACTCT
DNA 2: AGAGTTTTATAAATTTAACTCATGGACTCCATTAGTAAACTTATACTTTA
B4: GmMDE06 Probe2 (dsDNA)
DNA 1: GAATCAAGGGGTGAGACTCACGGTCATGACTCATGTAAATTCGTCTCCCA
DNA 2: TGGGAGACGAATTTACATGAGTCATGACCGTGAGTCTCACCCCTTGATTC
B5: Probe3 (dsDNA)
DNA 1: AGTTGATCAGCCCGAAATACTGCATGCACCTCACAAATTGACAAGTGCTT
DNA 2: AAGCACTTGTCAATTTGTGAGGTGCATGCAGTATTTCGGGCTGATCAACT

Biological target: T1, His-E1
Experiment: EMSA

Binder | binding result
B1 | binds
B2 | binds
B3 | binds
B4 | binds
B5 | binds
